Experimental data from the DeepSol protein solubility set.

Experiment: soluble on expression in E. coli; label from the status in PepcDB or PDB records

MKDTLGFEHADRSLYYRFRNSLSSNLHLTHFDIETKLEVAKKFNLILNDQFVKDLNSTMNLIFEPNGCLASYTWKTDFLDYTLNPMELIIPYQSVIPSKTVPYRKRRMNDLEDLRKIKECSKRAFISNSDQSEVPSTSMLNSMKEMITEAVETSNKKLIEELKTSNEALVAQVANFKSKHIEQSSGKPGMRAYLEGLKGFLHHLNMPELADIKVRLNTLEKDLGDTDQPIPVQSIHSVLDIGLKLIGG
soluble on expression in E. coli: not soluble

SASKIKGRPPKQPKVTPALPSNDSQQLHENNPGNNLALETCGESSSSHGTGGPKPGPSKKTLNERKRKYGVSVNKTVQNIEWNVDHFLKVQHERRQELYKDYSHQFLTLVMMWNIDVDQIKKQAGKLSDILDEQQKLFQQFQSIHMQKIEEFKELCDRHLKNLQAIKCCRRKAIIEEARKLMDYLEKRVTEETVHVNKQEAKDGVQSSLLSLLIS
soluble on expression in E. coli: soluble

MSLPAKTLVQAAANSGLRAVSVRHSSQAPKVALLGAAGGIGQPLGLLLKQDPLVAHLALYDVVNTPGVAADLSHIDSNAKVTAHTGPKELYAAVENADVIVIPAGVPRKPGMTRDDLFNTNAGIVRDLAAVIAKASPKALIAIITNPVNSTVPIASEVLKKAGVYDPKRVFGVTTLDVVRSQAFVSELKGHDASKTVVPVVGGHAGITIIPLLSQVKPSTKFSEEEISKLTPRIQDAGTEVVNAKAGAGSATLSMALAGARFANALVRGIKGEKNVQCAYVASDAVKGVEYFSTPVELGPNGVEKILGVGKVSAYEQKLIDASVPELNKNIAKGVAFVKGN
soluble on expression in E. coli: not soluble

MKLLLLLCISCIPLAYSHDGEPFDYLMFTTIYPTAVCRADDDSVPESCEIPSGTPQWSIHGLWPNFENGSYPQNCRGTPRHFDENLIKSIEDRLVVVWPNLYPKKTIQSFWKHEYDKHGTCAQSEKLFESELAYFTEVMKVFDSIDVAGGLKSVGPSEKPITSSDLKNALSGVTSGKTFQFHCLRDKKTKQFLLGDIRLCLNKDLTIRDCPTDGKHPNRVSRFERSIGRNRRGPPLPSFQPCPAEFIYLPEMSSISKSSDSTSPSIFGRIWSAIKNIGN
soluble on expression in E. coli: not soluble

MAWALPAQAEQLIYGFQAEQLEYRQGDSEDSFVWDFDALIGTDELKLVWRSEGERVQGAGGFETLENQLRLQFPVSTFFDAVVGVQASTPDGLPDRYNAVLGLKGLAPQWFEIDADLYLSDNSFFRFEGEYEAMLTNRLTLTPSLELTLPLQDDPIYNQAAGGVTLEAGLRLSYDLIDRAVSPYIGVNYERSYGGTADMIRAAGDENGAFSVVFGTRLMFLEHHHHHH
soluble on expression in E. coli: not soluble

SNAEELQALVDNIPAAIYHLDVSGQATIRFRPPAFLKTLVSEHAGTTRLNTLSMIHHDDRHMLSNAYSKLREAKHSLTLVYRIVTPEGKLHWIEDHMRSSFSDDGLFSGIDGILCEVT
soluble on expression in E. coli: soluble

MTSPVPRLIEQFERGLDAPICLTWELTYACNLACVHCLSSSGKRDPGELSTRQCKDIIDELERMQVFYVNIGGGEPTVRPDFWELVDYATAHHVGVKFSTNGVRITPEVATRLAATDYVDVQISLDGATAEVNDAIRGTGSFDMAVRALQNLAAAGFAGVKISVVITRRNVAQLDEFATLASRYGATLRITRLRPSGRGTDVWADLHPTADQQVQLYDWLVSKGERVLTGDSFFHLAPLGQSGALAGLNMCGAGRVVCLIDPVGDVYACPFAIHDHFLAGNVLSDGGFQNVWKNSSLFRELREPQSAGACGSCGHYDSCRGGCMAAKFFTGLPLDGPDPECVQGHSEPALARERHLPRPRADHSRGRRVSKPVPLTLSMRPPKRPCNESPV
soluble on expression in E. coli: not soluble

MKNICFINGSPRSKKANSTLYLNLIDKSLDSKNYTKYYIDTTSSIKGDLESTFKTLLDADYIILAFPLYVYSMPSLLVRFLEDYYIYLKNKDTISQKTNLYAVVNCGFPDAKMNVEALKIVFNCCKKLNINFRFGIGIGAGEFVNFSKNNPLLNKLSSCVYKSINKITYDIENQVSIEINNIFVNPKIPRRLFFIFGHIFWKKWAKRNGIKISALFDKPLEHHHHHH
soluble on expression in E. coli: not soluble

MKTVPPVHRIALLFNGSKIYDRGIISGIGNYLSSTRVSWDLFLEEDFLCRLKGIERWQGDGIIADFDDPLIGEALAGIRLPVVAVGGSYQDERAYPKGIPYVATDNHALIKAAYEHLIEAGLTRFACFSLPEAQANRWAQEREKAFRHLLQRDGLHAEVYRGLGTSAPLWDSAVEQQITWLQSLPKPIGIIAVTDARARQLLQACLTAGIAVPEQVALIGIDNDPLTRTLTRVPLSSVIQGTETMGRTAARLLHQLLHGMPSSGTHILIPPDAVNVQASSLHQPLGDPYVMQALLFIRQYACQGIKTAQVAAYVGVSRSALESHFRRVRGCSVHDEILRFKLAAAAHGLENTDSAIADIARDCGFRSAQYLHTVFRREFGCTPREYLQGANAALQ
soluble on expression in E. coli: not soluble

SRLMNEIRETRGLAYSVYSTFAPYQEKGPFEIGLQTKKEQAEQALQLTQKTLRDFVEQGPTEEELQAARQNIVGGFPLRIDSNQKILGYLGVIGFYDLPLTYLEDYVKAVEKVTVAQIRDAFKRRIDPAGMVTVVVGA
soluble on expression in E. coli: not soluble

IPAGELQIIDKIDAAFKVAATAAATAPADDKFTVFEAAFNKAIKETTGGAYDTYKCIPSLEAAVKQAYAATVAAAPQVKYAVFEAALTKAITAMSEVQKVSQ
soluble on expression in E. coli: soluble

MSDVTNTWNERYDTEEFVYGREPNAFLAGVSAMMPPGDVLCLAEGEGRNAVFLARQGHRVLAVDASAVGLSKAARLAEEHGVRIETLTTDLADLVIEPGRWDAIVSIFCHVPPPVRRVLHRQAVAGLRPGGLFVLEAYTPAQLELRTGGPPTVELLMTLADLREELAGLEFLQAREIERDVVEGRLHTGRGAVVQIVARKPLEHHHHHH
soluble on expression in E. coli: soluble

TLTTTPNQLTDGLEKSLRPLNKIHVPVHEIAMMMSIALRFIPILLEETDKIMKAQIARGADFENGNLIQKVKNMVPLLVPLFISAFRRANDLAMAMEARCYHGGDNRTQMKPLKYKKRD
soluble on expression in E. coli: not soluble

MRLAFWLYEGTALHGVSRVTNSMKGVHTVYHAPQGDDYITATYTMLERTPEFPKLSISVVRGQDLARGTSRLPGTVEQVDKHYKPELIVVAPSCSTALLQEDLGQMARASGVDQSKIMVYAVNPFRVAENEAAEGLFTELVRRFAAEQPKTEKPSVNLLGFTSLGFHLRSNLTSLRRMLKTLGIEVNVVAPWGAGIDDLKKLPAAWVNIAPFREIGCQAAGYLKEKFGMPSITEAPLGVNATLRWLRAIIAEVNKIGAEKGMAPMAMPELRDFSLDGQSAPSSVPWFARTADMESFSNKRAFVFGDATQVVGVTKFLKDELGMKIIGAGTYLPKQADWVREQLEGYLPGELMVTDKFQEVSAFIEEEMPELVCGTQMERHSCRKLDVPCMVISAPTHIENHLLGYYPFFGFDGADVMADRVYTSAKLGLEKHLIDFFGDAGLEYEAEEPEAFTEPTMSGNGTVASVSSAEAPSEAAVVTATATGELSWTAEAEKMLGKVPFFVRKKVRKNTDNYAREIGEPVVTADVFRKAKEHLGGLEHHHHHH
soluble on expression in E. coli: not soluble

MVPELKQISRVEAMRLGPGWSHSCHAMLYAANPGQLFGRIPMRFSVLMQMRFDGLLGFPGGFVDRRFWSLEDGLNRVLGLGLGCLRLTEADYLSSHLTEGPHRVVAHLYARQLTLEQLHAVEISAVHSRDHGLEVLGLVRVPLYTQKDRVGGFPNFLSNAFVSTAKCQLLFALKVLNMMPEEKLVEALAAATEKQKKALEKLLPASSAHHHHHH
soluble on expression in E. coli: soluble

QQGNPNLSSPQPILDTIYKLLSEQEQTLVQMIHEQSLLLNRLPPTLDENSLAPLKSLSQKQITLSGQMNTEMSALDATKKGMILEPTDLAKLFALKQDLQIQFKQLSLLHNEIQSILNPQHSAPKPNVALVLKSQPFPVVISKGKQLGENQLVVLVLTGARSNFHINGPVKATMICDSHPTNKNNPTTPLEMDSQPIYPATLTAHFPLKFLAGTRKCSVNLKFGVNIRDLDNVTTTVESDASNPFVVITNECQWEGSAGVLLKKDAFDGQLEITWAQFINTLQRHFLIATKQDPVRPKRPLSSYDLKYIQTHFFGNRSIIHQQDFDKFWVWFGKSMQTLRYQRHISTLWQEGIIYGYMGRQEVNDALQNQDPGTFIIRFSERNPGQFGIAYIGVEMPARIKHYLVQPNDTAAAKKTFPDFLSEHSQFVNLLQWTKDTNGAPRFLKLHKDTALGSFAPKRTAPVPVGGYEPLNS
soluble on expression in E. coli: soluble

MGSDKIHHHHHHMKFTINRTLFIEKLEKASATVDVKNPMPALQGVLLDCNSKGMILMGSDGTETVTLVTRFNVNSGDCTEPGKVLFAAAPVLKTIKKFKSEFIGLEHKNNELKIVESKKKQFSFCTMDHEEYPEIKIEAGEDWISLSQEQFVSMANGTLHAIPAMDTRKILTGVNLKSVDDKFFSIATDAHRLARLHFDCTKITIAKDGEVVLPIKSLKTALKLFNRETNLQLKLISDTQLLIRGESIIYQSRLLAGTYPDTARMVPDEFKSEIQLSREEFKNTLEQLSAFSSLIVLTSEGKESIHLKPQNSQVGTASVEIPCNQVEAFTLACNVEYLLQALQTITSETIAIKMISNQRPIVVVGAEDTTHSNLQLILPVRV
soluble on expression in E. coli: not soluble

MGSDKIHHHHHHMASPTVRRRQLSAILREMRKASGLSLDAVAARLEWSRAKVGHIETGQRKKPSVLEVKALMAEYGVTPEDPRYETVLMLTRQAQARGWWRRYDDLFPGSYIELEAEASEIRTYEAFVVPGLLQTPGYTRLLQQARLDRDPDDVERAVESRRKRQEIFDRTSPPAVYAIIEEHALERLRGTPDVLAEQVAHLLHMAGRNSVTLQVLRTRVGVHAGAMGPFVILDFPEPASPVVYLETYTDGLFLERREEIDQYRSLWDRIRDAALPPDRTVEFLRSLLTL
soluble on expression in E. coli: not soluble

MKVTPINDYKDIHQDKETVLVLGYFDALHRGHKVLFDKARQIADEKQLEVAVFTFNESPQLTFQRYTDDLLLHITAPQRRCDLFKAYGTDQLYLTDFNSDFARTSSDDFITRYINRLKAQEIVVGFDYKFGHHRTDTDYLDRNFSGTVHVIEEQQSGGEKISSTRVRQLIREGNVKEANNLLGHEFSTRGIVVHGDARGRTIGFPTANLAPIDRTILPADGVYVADVVIDGKRYRSMTSLGKNVTFGGTELRLEANIFDFEGDIYGKTIEVFWLDYIRDMIKFNNIDELCDQLKADKKIAEKL
soluble on expression in E. coli: not soluble

MAHHHHHHMALIQTAHDACSRKVHCVRKGYLNDPFVSFFEKDHTIVNSPLMNRGTWLRTTAFENCVRGFATAAGQPIQVINFGAGMDTLYFRLKHSDPQFPVQKFMELDLADLVAEKERIIKRHSEMHSLVGSQYVLVSCDLYDAKGVAKALKEHLHGGTPTIMIAEMVFVYIEGSVTTNLLRTVMSDVIEPGTKTMLVTYDAIQPFDRFGKVMVENLQHFGADFKGIGDFPTPEAHAGRCSELGFKAVKSVTMKNLYLGVPRQIQIRLNKLEMIDDWEEWNLMHEHYCFVVASTEDAPLPKLF
soluble on expression in E. coli: not soluble

FDIALTGREGKKIGAAFIVGDSEEVLKRSHQIILNPYEGHEEAHRNILDRRNWESIKEFALLDGVFVIDETGIVRAAGRYLDVDGKNIDIEKGLGGRHVSAAAISRDTVAISVTVSESGGVLRVYKDAKETICMESLQPASRYV
soluble on expression in E. coli: not soluble

GAMDAAVAPEERHLSKMQQNGYENPTYKFFEQMQN
soluble on expression in E. coli: soluble

MLPQRLKKAITDNPKKLGNLIDLVNLPSTLRNFVGQSQISRLGCFMRVWSYIKTNNLQDPKNKNVVICDEKLKSILLGKQRVELVDLPSLIKLHFPKEQKKNSQKI
soluble on expression in E. coli: not soluble

MGSDKIHHHHHHMITIDALGQVCPIPVIRAKKALEGLGEAGGVVAVLVDNDISRQNLQKMAEGMGYQSEYQEKDNGVIEVTIVAGEGCAVETSGTPADSGLVVAIGRNTMGEGSEELGRILLKGFIYSLRELTPPPARLLFFNSGAYLTSKDSNSIEDLKAMAAQGTIIQTCGTCINYYGITEQLAVGQVANMYDIVTAMAEAKRLINI
soluble on expression in E. coli: not soluble
